# According to patent US20020028202A1 (Biogen, published 2002):
# Numbering of substitutions follows the chain as printed.
# B1: CP.B8 monoclonal antibody (murine anti-human gc chain, hybridoma ATCC HB-12107) (antibody, V domains shown)
# VH: LQESGPGLVAPSQSLSITCTVSGFSLTSYGVHWVRQPPGKGLEWLGVIWAGGSTNYNSALMSRLNINRDNSKSQIFLKMNSLQTDDTAIYYCAREGSTVDSMDYWGQGTTVT
# VL: DIVMTQSHKFMSTSVGDSITITCKASQDVTTAVAWYQQKPGQSPKLLIYWASTRHTGVPDRFTGSGSGTDYTLTISSVQAEDLALYYCQQHYITPWTFGGGTKLEI
# notes: Used unconjugated and biotin-conjugated; also called CP.B8 mAb; mAb CP.B8
# Assays:
# Assay in all cases: staining of transfected COS-7 cells, FACS
# [1] = target: T1, human gc chain mutant, PL replaced by Ala (Domain 2 Loop FQ), myc-tagged, on COS-7 cells (human, UniProt P31785 23-369)
# T1 construct: whole, on cells; not shown: 9 amino acid myc tag at the 5' end of the construct
# T1 sequence (looked up): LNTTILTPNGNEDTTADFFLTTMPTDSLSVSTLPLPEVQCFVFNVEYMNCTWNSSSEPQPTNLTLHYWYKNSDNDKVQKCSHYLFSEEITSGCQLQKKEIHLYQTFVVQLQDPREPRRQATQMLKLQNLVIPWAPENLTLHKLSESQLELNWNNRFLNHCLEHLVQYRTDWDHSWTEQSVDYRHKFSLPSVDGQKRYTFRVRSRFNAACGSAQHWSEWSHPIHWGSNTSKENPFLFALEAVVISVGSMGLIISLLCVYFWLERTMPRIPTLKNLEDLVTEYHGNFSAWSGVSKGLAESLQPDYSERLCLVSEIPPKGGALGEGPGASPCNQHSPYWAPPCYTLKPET
# [2] = target: T2, human gc chain mutant, ESQ replaced by Ala (Domain 2 Loop AB), myc-tagged, on COS-7 cells (human, UniProt P31785 23-369)
# T2 construct: whole, on cells; not shown: 9 amino acid myc tag at the 5' end of the construct
# T2 sequence (looked up): T1 sequence (looked up) with E145A, S146A, Q147A, A207P, A208L
# [3] = target: T3, human gc chain mutant, LNH replaced by Ala (Domain 2 Loop BC), myc-tagged, on COS-7 cells (human, UniProt P31785 23-369)
# T3 construct: whole, on cells; not shown: 9 amino acid myc tag at the 5' end of the construct
# T3 sequence (looked up): T1 sequence (looked up) with L157A, N158A, H159A, A207P, A208L
# [4] = target: T4, human gc chain mutant, NLV replaced by Ala (interdomain residues), myc-tagged, on COS-7 cells (human, UniProt P31785 23-369)
# T4 construct: whole, on cells; not shown: 9 amino acid myc tag at the 5' end of the construct
# T4 sequence (looked up): T1 sequence (looked up) with N128A, L129A, V130A, A207P, A208L
binder,measurement,setting,value
B1,% binding to mutant gc chain/wildtype gc chain,[1],86%
same,% binding to mutant gc chain/wildtype gc chain,[2],75%
same,% binding to mutant gc chain/wildtype gc chain,[3],88%
same,% binding to mutant gc chain/wildtype gc chain,[4],0%
